Publication PMC9982066, “Inhibition of Ehrlichia chaffeensis infection by cell-permeable macrocyclic peptides that bind type IV secretion effector Etf-1” (PNAS Nexus, 2023)
Starred links: 1 amine or outer side, 2 acyl side, 3 side chain; linkers in the order of their positions; H or OH if unused. Positions of bridges follow the written chain, without caps; N, C: chain ends. Non-standard residues stand in square brackets, D forms with d. No end group written: not given here. Trimesoyl = O=C(c1cc(C(=O)[*:2])cc(C(=O)[*:3])c1)[*:1]; Phe(3,4-Cl2) = N[C@@H](Cc1ccc(Cl)c(Cl)c1)C(=O)O; Phe(4-CF3) = N[C@@H](Cc1ccc(C(F)(F)F)cc1)C(=O)O; Phe(3-Cl) = N[C@@H](Cc1cccc(Cl)c1)C(=O)O; Phe(4-Cl) = N[C@@H](Cc1ccc(Cl)cc1)C(=O)O; Phe(4-F) = N[C@@H](Cc1ccc(F)cc1)C(=O)O; Phe(4-Me) = Cc1ccc(C[C@H](N)C(=O)O)cc1; 2Nal = N[C@@H](Cc1ccc2ccccc2c1)C(=O)O; d1Nal = N[C@H](Cc1cccc2ccccc12)C(=O)O; d2Nal = N[C@H](Cc1ccc2ccccc2c1)C(=O)O; hPhe = N[C@@H](CCc1ccccc1)C(=O)O; Phg = N[C@H](C(=O)O)c1ccccc1; Nle = CCCC[C@H](N)C(=O)O; Dap = NC[C@H](N)C(=O)O; TMA = not defined here; βAla = NCCC(=O)O

B1: macrocyclic peptide B7-10, FAM-labelled (peptide)
chain: YHQ[dP]S[dL][Dap]F[d2Nal][dR]A[dR]R[Dap]-{βAla-βAla-Lys(FAM)}
modifications: linker 7-14 via TMA; reading uncertain; also: TMA third attachment point not given here
B2: macrocyclic peptide B7-11, FAM-labelled (peptide)
chain: YHQ[dP]S[dL][Dap]F[d2Nal][dR]R[dA]R[Dap]-{βAla-βAla-Lys(FAM)}
modifications: linker 7-14 via TMA; reading uncertain; also: TMA third attachment point not given here
B3: macrocyclic peptide B7-1, FAM-labelled (peptide)
chain: YHQ[dP]S[dA][Dap]F[d2Nal][dR]R[dR]R[Dap]-{βAla-βAla-Lys(FAM)}
modifications: linker 7-14 via TMA; reading uncertain; also: TMA third attachment point not given here
B4: FAM-labeled macrocyclic peptide B7 (peptide)
chain: YHQ[dP]S[dL][Dap]F[d2Nal][dR]R[dR]R[Dap]-{βAla-βAla-Lys(FAM)}
modifications: linker 7-14 via TMA; reading uncertain; also: TMA third attachment point not given here
B5: FAM-labeled macrocyclic peptide B7-133-3 (peptide)
chain: Y[dF]D[Nle][dN][dL][Dap][Phe(4-Cl)][d2Nal][dR]R[dR]R[Dap]-{βAla-βAla-Lys(FAM)}
modifications: linker 7-14 via TMA; reading uncertain; also: TMA third attachment point not given here
B6: FAM-labeled macrocyclic peptide B7-133-8 (peptide)
chain: Y[d2Nal]Q[D‑beta‑homoalanine][dP][dL][Dap][Phe(4-Cl)][d2Nal][dR]R[dR]R[Dap]-{βAla-βAla-Lys(FAM)}
modifications: linker 7-14 via TMA; reading uncertain; also: TMA third attachment point not given here

Assays:
[1] = biological target: Ehrlichia translocated factor-1 (Etf-1) (Ehrlichia chaffeensis, UniProt Q2GG12 1-380); experiment: fluorescence polarisation; conditions: both partners purified
[2] = biological target: Ehrlichia translocated factor-1 (Etf-1), recombinant 6×His-Etf-1 fusion protein (E. chaffeensis, UniProt Q2GG12 1-380); experiment: fluorescence polarisation; conditions: both partners purified

| Binder | Kd [1] [µM] | Kd [2] [µM] |
| --- | --- | --- |
| YHA[dP]S[dL][Dap]F[d2Nal][dR]R[dR]R[Dap]-{βAla-βAla-Lys(FAM)} (linker N-7-14 via Trimesoyl; not fully specified (N-terminus)) [macrocyclic peptide B7-4, FAM-labelled] | 7.4 ± 0.9 | – |
| YAQ[dP]S[dL][Dap]F[d2Nal][dR]R[dR]R[Dap]-{βAla-βAla-Lys(FAM)} (linker N-7-14 via Trimesoyl; not fully specified (N-terminus)) [macrocyclic peptide B7-5, FAM-labelled] | 10.9 ± 1.5 | – |
| AHQ[dP]S[dL][Dap]F[d2Nal][dR]R[dR]R[Dap] (linker 7-14 via TMA; not fully specified (C-terminus); reading uncertain) [macrocyclic peptide B7-6, FAM-labelled] | 11.9 ± 3.4 | – |
| YHQ[dP]S[dL][Dap]F[d2Nal][dA]R[dR]R[Dap] (linker 7-14 via TMA; not fully specified (C-terminus); reading uncertain) [macrocyclic peptide B7-9, FAM-labelled] | 30 ± 7 | – |
| B1 | 30 ± 3 | – |
| B2 | 28 ± 6 | – |
| YHQ[dP]S[dL][Dap]F[d2Nal][dR]R[dR]A[Dap]-{βAla-βAla-Lys(FAM)} (linker N-7-14 via Trimesoyl; not fully specified (N-terminus)) [macrocyclic peptide B7-12, FAM-labelled] | 15 ± 2 | – |
| YHQ[dP]S[dL][Dap][Phe(4-Me)][d2Nal][dR]R[dR]R[Dap]-{βAla-βAla-Lys(FAM)} (linker N-7-14 via Trimesoyl; not fully specified (N-terminus)) [macrocyclic peptide B7-13, FAM-labelled] | 6.3 ± 0.8 | – |
| YHQ[dP]S[dL][Dap][Phg][d2Nal][dR]R[dR]R[Dap]-{βAla-βAla-Lys(FAM)} (linker N-7-14 via Trimesoyl; not fully specified (N-terminus)) [macrocyclic peptide B7-14, FAM-labelled] | 5.8 ± 0.9 | – |
| YHQ[dP]S[dL][Dap][hPhe][d2Nal][dR]R[dR]R[Dap]-{βAla-βAla-Lys(FAM)} (linker N-7-14 via Trimesoyl; not fully specified (N-terminus)) [macrocyclic peptide B7-15, FAM-labelled] | 3.4 ± 0.6 | – |
| YHQ[dP]S[dL][Dap][Phe(3-Cl)][d2Nal][dR]R[dR]R[Dap]-{βAla-βAla-Lys(FAM)} (linker N-7-14 via Trimesoyl; not fully specified (N-terminus)) [macrocyclic peptide B7-17, FAM-labelled] | 3.4 ± 0.4 | – |
| YHQ[dP]S[dL][Dap][Phe(4-F)][d2Nal][dR]R[dR]R[Dap]-{βAla-βAla-Lys(FAM)} (linker N-7-14 via Trimesoyl; not fully specified (N-terminus)) [macrocyclic peptide B7-18, FAM-labelled] | 3 ± 0.5 | – |
| YHQ[dP]S[dL][Dap][Phe(3,4-Cl2)][d2Nal][dR]R[dR]R[Dap]-{βAla-βAla-Lys(FAM)} (linker N-7-14 via Trimesoyl; not fully specified (N-terminus)) [macrocyclic peptide B7-19, FAM-labelled] | 1.6 ± 0.2 | – |
| YHQ[dP]S[dL][Dap][Phe(4-CF3)][d2Nal][dR]R[dR]R[Dap]-{βAla-βAla-Lys(FAM)} (linker N-7-14 via Trimesoyl; not fully specified (N-terminus)) [macrocyclic peptide B7-20, FAM-labelled] | 1.8 ± 0.2 | – |
| YHQ[dP]S[dL][Dap][2Nal][d2Nal][dR]R[dR]R[Dap]-{βAla-βAla-Lys(FAM)} (linker N-7-14 via Trimesoyl; not fully specified (N-terminus)) [macrocyclic peptide B7-21, FAM-labelled] | 1.9 ± 0.2 | – |
| YHQ[dP]S[dL][Dap][Phe(4-Cl)][3‑(3-benzothienyl)‑D‑Ala][dR]R[dR]R[Dap]-{βAla-βAla-Lys(FAM)} (linker N-7-14 via Trimesoyl; not fully specified (N-terminus)) [macrocyclic peptide B7-22, FAM-labelled] | 5.7 ± 0.9 | – |
| YHQ[dP]S[dL][Dap][Phe(4-Cl)][d1Nal][dR]R[dR]R[Dap]-{βAla-βAla-Lys(FAM)} (linker N-7-14 via Trimesoyl; not fully specified (N-terminus)) [macrocyclic peptide B7-23, FAM-labelled] | 4.7 ± 0.5 | – |
| B3 | 18.9 ± 6.9 | – |
| YHQ[dP]A[dL][Dap]F[d2Nal][dR]R[dR]R[Dap]-{βAla-βAla-Lys(FAM)} (linker N-7-14 via Trimesoyl; not fully specified (N-terminus)) [macrocyclic peptide B7-2, FAM-labelled] | 6.7 ± 0.8 | – |
| YHQ[dA]S[dL][Dap]F[d2Nal][dR]R[dR]R[Dap]-{βAla-βAla-Lys(FAM)} (linker N-7-14 via Trimesoyl; not fully specified (N-terminus)) [macrocyclic peptide B7-3, FAM-labelled] | 5.8 ± 0.5 | – |
| B4 | – | 6.5 ± 0.7 |
| B5 | – | 2.4 ± 0.3 |
| B6 | – | 1.3 ± 0.1 |
